In patent publication US20180066068A9, “ANTI-PSYK ANTIBODY MOLECULES AND USE OF SAME FOR SYK-TARGETED THERAPY” (Millennium Pharmaceuticals, Inc., priority 2014, published 2018):

Experiments:
DLBCL cell lines = assay: Inhibition of cellular proliferation; assay type: cell-based; settings: expanded set of relevant models; 72 hours of treatment, DLBCL cell lines (FIG. 21)
[1] = tested on: pSYK, pBLNK, cleaved caspase 3 in PHTX-95L primary DLBCL xenografts; assay: Pharmacodynamics by IHC in PHTX-95L xenografts; assay type: in vivo, NOD SCID mice
[2] = tested on: pSYK in TMD8 lymphoma cell line xenograft; assay: Pharmacodynamics by IHC in TMD8 xenografts; assay type: in vivo, mice; settings: single oral dose 120 mg/kg, two hours after dosing; MIL81-1-8 hybridoma and molecular clone antibodies
GST-pSYK (IVK) = target: T1, GST-pSYK (IVK) (Homo sapiens, UniProt P43405); assay: Western blot on autophosphorylated GST-pSYK (IVK); assay type: binding; settings: GST-tagged recombinant SYK, compared with untreated
T1 construct: made in house; host or cells: baculovirus-infected Sf9 cells
Protocol: GST-hSYK was expressed in baculovirus-infected Sf9 cells and affinity-purified by glutathione Sepharose affinity resin. For in vitro kinase (IVK) pSYK, isolated GST-SYK was incubated in 1 mM ATP, 1 mM MgCl2 for 1 hr at room temperature to allow autophosphorylation to occur. The reaction was stopped by the addition of 5 mM EDTA and a small aliquot removed for treatment with 0.1% SDS, stored […] and used for AlphaScreen analysis or stored at −80° without further purification. This sample was later used at Epitomics for screening assays of hybridoma. An aliquot of the sample was analyzed by SDS-PAGE for Western blotting using anti-SYK (Cell Signaling Technologies #2712) and Epitomics 2175-1. The majority of the recombinant material was confirmed to be phosphorylated at Y525/526.
(§1) Western blots were prepared from SDS-PAGE gels of GST-pSYK (IVK), and phosphatase-treated GST-pSYK. Each hybridoma multiclone supernatant was tested for binding to the blots. […] By this method, multiclone hybridoma supernatants with good binding of phosphorylated relative to dephosphorylated pSYK were 1, 2, 19, 24, 39, 49, 52, 53, 55, 59, 63, 70, 81, 84, 85, 87, 98 and 99.

[3] = target: T2, phosphatase-treated GST-pSYK (de-pSYK) (Homo sapiens, UniProt P43405); assay: Western blot on phosphatase-treated GST-pSYK; assay type: binding; settings: GST-tagged recombinant SYK
T2 construct: made in house; host or cells: baculovirus-infected Sf9 cells
Protocol: Some of the autophosphorylated GST-pSYK was treated with T-cell protein phosphatase (TC-PTP, New England Biolabs), a tyrosine-specific phosphatase, for confirming specificity of antibodies to pSYK.
as §1

[4] = target: T3, SYK in lysates of WSU-DLCL2 cells (Homo sapiens, UniProt P43405); assay: Western blot of cell lysates, WSU-DLCL2; assay type: binding; settings: lysate of stimulated cells
T3 construct: endogenous in cells; host or cells: WSU-DLCL2 cells, unstimulated or stimulated (BCR crosslinking or pervanadate)
Protocol: Additional cell culture material was used to screen antibodies by utilizing WSU-DLCL2 (human diffuse large B-cell lymphoma) cells that were stimulated through crosslinking the B-cell receptor (AffiniPure F(ab′)^2 fragment of goat anti-human Ig, cat #109-006-127, JacksonImmuno Research Laboratories, Inc., West Grove, Pa.) or with pervanadate treatment (25 μL into 1 mL of cells of the following; 50 μL Na3VO4, 5.5 μL 9.1M H2O2(31%), 944.5 μl H2O) over a 60 min time course. At each time point cells were collected and lysed in MPER (Thermo: 7850) containing both a protease inhibitor cocktail I (Calbiochem:539131-10VL) and 1× HALT a generic protein phosphatase inhibitor cocktail (Thermo: 78428). Also LY10 (OCI-LY10) cells were used as lysates without or with stimulation with cross-linking or pervanadate as described above. Ly10 cells have weak SYK expression compared to WSUDLCL2 cells (FIG. 1). […] (BLNK was detected in every sample by CST 3575 and SC15345 antibodies, with the pBLNK detection paralleling the pSYK detection in the crosslinked and pervanadate-treated cells.) One conclusion of this study extended the nucleic acid results, and found weak pSYK signal in the Ly10 crosslinked sample. […]

[5] = target: T4, pSYK in human DLBCL biopsies (Homo sapiens, UniProt P43405); assay: IHC of human DLBCL biopsies, AMP HQ versus Leica IHC; assay type: binding
T4 construct: from tissue; host or cells: FFPE human DLBCL biopsies; one normal lymph node
Protocol: Antibodies were incubated with OmniMap goat anti-rabbit HRP secondary antibody (Ventana Medical Systems) for 16 minutes. A Discovery AMP TSA HQ kit (Ventana Medical Systems) was applied for 16 minutes followed by 16 minute incubation with the Discovery anti-HQ HRP (Ventana Medical Systems) antibody. The staining was then developed with the 3,3′-diaminobexidine (DAB) substrate map system. Slides were counterstained with hematoxylin and imaged using the Aperio whole slide scanning system (XT). A comparative staining was obtained with the MIL81-1-8 3H3/3L2 antibody using an automated protocol on a Leica automated stainer. pSYK protein levels in Formalin-Fixed, Paraffin-Embedded tissues were incubated with MIL81-1-8 3H3/3L2 antibody ([…]) for 30 minutes on the Leica Microsystems (Wetzlar, Germany) BOND RX automated stainer. Antibodies were incubated with a rabbit anti-goat HRP secondary antibody (Leica Laboratories) and developed with the 3,3′-diaminobexidine (DAB) substrate map system. Slides were counterstained with hematoxylin and imaged using the Aperio whole slide scanning system (XT). The staining of the AMP HQ and the Leica IHC were compared to determine staining specificity. […] Each was scored either positive (membrane stain was found) or negative (no membrane staining was found). […]

[6] = target: T5, pSYK in DLBCL patient samples and normal lymph node (Homo sapiens, UniProt P43405); assay: IHC of molecular clone versus hybridoma antibody on human biopsies; assay type: binding
T5 construct: from tissue; host or cells: FFPE human DLBCL biopsies; one normal lymph node
Protocol: The molecular clone antibody also was assessed by IHC. The immunohistochemical staining of antibody purified from MIL81-1-8 hybridoma supernatant as described above was compared to staining by MIL81-1-8 3H3/3L2 clone antibody purified from culture supernatant of transiently co-transfected HEK293 cells (also one-step purification-protein A chromatography followed by buffer exchange).
Both the molecular clone and the hybridoma antibodies stained HBL1 to a moderate extent and strongly stained PHTX95L untreated samples. […] The molecular clone antibody was compared to the hybridoma antibody for staining biopsies of human tissues. There were three DLBCL patient samples and one normal lymph node sample (non-tumorigenic) from a patient. […] If nuclear staining would be considered off-target and lead to a determination of absence of pSYK, then a version of MIL81-1-8, with less nuclear relative to cytoplasmic or membranous staining could lead to fewer false negative results.

[7] = single dose 120 mg/kg, IHC of tumors harvested over time

With Cn1cc(-c2nc(N[C@@H]3CCCC[C@@H]3N)c(F)c3c2C(=O)NC3)cn1 [Compound A, 6-((1R,2S)-2-Aminocyclohexylamino)-7-fluoro-4-(1-methyl-1H-pyrazol-4-yl)-1H-pyrrolo[3,4-c]pyridin-3(2H)-one] the EC50 (DLBCL cell lines) was 25 to 4000 nM, the “cleaved caspase 3 expression” value [1, 7] was “increase in expression” and the “pBLNK (pBLNK65) expression time course” value [1, 7] was “Time dependent inhibition”. For the same molecule, the “pSYK (pSYK525) expression time course” value [1, 7] was “Time dependent inhibition”, the “pSYK stain in PHTX95L xenograft after treatment” value ([1]; single oral dose 120 mg/kg, two hours after dosing, MIL81-1-8 hybridoma and molecular clone antibodies) was “diminished” and the “pSYK stain in TMD8 xenograft after treatment” value [2] was “diminished”.

B1: MIL81-1-8 3H3/3L2: recombinant molecular clone of MIL81-1-8; heavy chain SEQ ID NO:4, light chain SEQ ID NO:6, from transfected HEK293 cells (antibody)
heavy: METGLRWLLLVAVLKGVQCQSVEESGGRLVTPGTPLTLTCTVSGIDLNSYIMSWVRQAPGKGLEWIGIISRRGNTYYASWPKGRFTISKTSTTVDLKITSPTTEDTATYFCARAYLYTSGTMSVWGPGTLVTVSSGQPKAPSVFPLAPCCGDTPSSTVTLGCLVKGYLPEPVTVTWNSGTLTNGVRTFPSVRQSSGLYSLSSVVSVTSSSQPVTCNVAHPATNTKVDKTVAPSTCSKPTCPPPELLGGPSVFIFPPKPKDTLMISRTPEVTCVVVDVSQDDPEVQFTWYINNEQVRTARPPLREQQFNSTIRVVSTLPIAHQDWLRGKEFKCKVHNKALPAPIEKTISKARGQPLEPKVYTMGPPREELSSRSVSLTCMINGFYPSDISVEWEKNGKAEDNYKTTPAVLDSDGSYFLYSKLSVPTSEWQRGDVFTCSVMHEALHNHYTQKSISRSPGK
light: MDTRAPTQLLGLLLLWLPGARCADIVMTQTPSPVEAAVGGTVTIKCQASESISSYLSWYQQKPGQPPKLLIYRASTLVSGVPSRFKGSGSGTDFTLTISDLECADAATYYCQHTYFGSDYVGGFGGGTEVVVKGDPVAPTVLIFPPAADQVATGTVTIVCVANKYFPDVTVTWEVDGTTQTTGIENSKTPQNSADCTYNLSSTLTLTSTQYNSHKEYTCKVTQGTTSVVQSFNRGDC
With B1 the “Western blot staining of IVK-treated recombinant SYK” value (GST-pSYK (IVK)) was “stained the IVK-treated SYK band more intensely than the untreated SYK band”, the “Western blot staining of phosphatase-treated recombinant SYK” value [3] was “slightly stained” and the “Binding to SYK on western blot, stimulated WSU-DLCL2 cells” value [4] was “stained the band”. The “Samples deemed positive (membrane stain) out of 82” value ([5]; AMP HQ amplified IHC, 1:10,000 dilution) was 34, the “Samples deemed positive (membrane stain) out of 82” value ([5]; Leica IHC, 1:3200 dilution) was 24 and the “Overall IHC comparison with hybridoma antibody” value ([6]; cell pellets, xenografts and human biopsies) was “slightly better than the hybridoma antibody”. The “Nuclear staining intensity compared to hybridoma antibody” value ([6]; human biopsies) was “remarkably reduced”.
